Positions count from the first letter of the chain named. Blank lines part the entries; values can stand above or below the binder they belong to.
Legend:
[1] = biological target: T1, cynomolgus IgE (recombinant chimaeric D12 variable region and cynomolgus IgE constant region) (cynomolgus monkey (constant region); …); experiment: cell-based or functional assay
[2] = biological target: T1, cynomolgus IgE (recombinant chimaeric …); experiment: SPR BIAcore; IgG captured on protein G', IgE analyte, bivalent analyte fit; geomean
[3] = biological target: human IgE (preparation not stated, or 'Calbiochem or U266-derived') (human, UniProt P01854-1 1-428); experiment: cell-based or functional assay
[4] = biological target: T2, cynomolgus IgE Cε3-Cε4 domain, C-terminally tagged with FLAG His10 (cynomolgus monkey); experiment: DELFIA epitope competition; competitor vs biotinylated IgE on immobilised IgG
T2 construct: also called Cynomolgus Ce3-4 FLAG His10
T2 chain: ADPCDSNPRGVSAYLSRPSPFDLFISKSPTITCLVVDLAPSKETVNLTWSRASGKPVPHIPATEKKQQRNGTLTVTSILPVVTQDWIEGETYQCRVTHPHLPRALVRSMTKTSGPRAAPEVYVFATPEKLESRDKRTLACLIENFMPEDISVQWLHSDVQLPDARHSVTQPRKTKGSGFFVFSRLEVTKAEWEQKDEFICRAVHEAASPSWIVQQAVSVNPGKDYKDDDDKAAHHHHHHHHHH

[5] = biological target: T1, cynomolgus IgE (recombinant chimaeric …); experiment: HTRF competition; scFv titrated vs Eu-cryptate cynomolgus IgE binding to human FcεRI-Fc; geomean
[6] = biological target: MOv18 IgE; experiment: cell-based or functional assay

T1 sequence (heavy, as listed by the source limits assumed, chain 1 of 2): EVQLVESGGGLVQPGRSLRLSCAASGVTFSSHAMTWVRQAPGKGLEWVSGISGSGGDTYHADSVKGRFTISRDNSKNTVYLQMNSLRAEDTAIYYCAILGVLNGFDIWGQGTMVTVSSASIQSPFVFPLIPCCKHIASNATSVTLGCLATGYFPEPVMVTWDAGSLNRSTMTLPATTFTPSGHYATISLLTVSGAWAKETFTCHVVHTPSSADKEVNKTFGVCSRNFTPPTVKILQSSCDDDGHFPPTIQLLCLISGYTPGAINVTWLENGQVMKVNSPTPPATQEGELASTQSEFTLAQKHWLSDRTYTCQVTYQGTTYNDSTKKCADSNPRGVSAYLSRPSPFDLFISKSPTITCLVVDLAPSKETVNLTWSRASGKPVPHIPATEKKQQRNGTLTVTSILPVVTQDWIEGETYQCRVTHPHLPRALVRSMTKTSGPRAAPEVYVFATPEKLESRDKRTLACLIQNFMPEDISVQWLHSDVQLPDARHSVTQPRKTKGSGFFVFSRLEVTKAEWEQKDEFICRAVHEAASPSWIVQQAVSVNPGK
T1 sequence (light, as listed by the source limits assumed, chain 2 of 2): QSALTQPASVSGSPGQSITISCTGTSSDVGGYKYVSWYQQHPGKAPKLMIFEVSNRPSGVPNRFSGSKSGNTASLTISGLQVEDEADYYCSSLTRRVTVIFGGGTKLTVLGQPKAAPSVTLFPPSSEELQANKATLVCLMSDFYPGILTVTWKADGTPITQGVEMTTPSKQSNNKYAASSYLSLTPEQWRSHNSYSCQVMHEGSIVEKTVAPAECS
Sequence of human IgE (preparation not stated, or 'Calbiochem or U266-derived') (P01854 other isoform, or with tags, fused parts or gaps): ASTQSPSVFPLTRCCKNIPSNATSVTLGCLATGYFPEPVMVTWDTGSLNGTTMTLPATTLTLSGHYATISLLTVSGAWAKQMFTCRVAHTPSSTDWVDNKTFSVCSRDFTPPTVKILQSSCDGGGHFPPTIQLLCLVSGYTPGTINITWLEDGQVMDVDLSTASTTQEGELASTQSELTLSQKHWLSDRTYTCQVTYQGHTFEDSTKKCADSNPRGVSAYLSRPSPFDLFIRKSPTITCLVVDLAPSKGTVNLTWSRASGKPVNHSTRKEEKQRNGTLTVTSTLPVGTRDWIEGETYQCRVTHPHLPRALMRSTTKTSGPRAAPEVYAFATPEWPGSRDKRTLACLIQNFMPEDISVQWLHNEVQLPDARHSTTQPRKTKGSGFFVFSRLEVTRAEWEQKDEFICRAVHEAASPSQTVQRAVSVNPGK

IC50 [5]: 7 nM
B4: Antibody 28 scFv (scFv, V domains shown, not shown: small tags and cut ends)
VH: QVQLVQSGAEVKKPGATVKLSCKVYGYIFTDYNIYWVRQAPGKGLEWMGLIDPDNGETFYAEKFQGRATMTADTSSDRAYMELTSLTFEDTATYYCATVMGKWIKGGYDYWGRGTLVTVSS
VL: QSVLTQPPSVSGAPGQRVTISCTGSSSNIGAGYDVHWYQQLPGTAPKLLIYDNFNRPSGVPDRFSGSKSGTSASLAIIGLQTEDEADYYCQSYDSSSLHSPFGTGTKLTVL
notes: Purified scFv

RBL-ER51 calcium signalling IC50 (nM), Cynomolgus IgE, geomean [1]: 0.523 nM
Kd [2]: 4.3 nM
B5: Antibody 23 IgG (antibody, V domains shown)
VH: B4 VH
VL: B4 VL with S96H, S97H, H99Y, P101S
notes: Whole human IgG (section 1.4, IgG1)

RBL-ER51 calcium signalling IC50 (nM), Cynomolgus IgE, geomean [1]: 0.111 nM
Kd [2]: 7.9 nM
B6: Antibody 19 IgG (antibody, V domains shown)
VH: B4 VH
VL: B4 VL with S96T, S97L, L98S
notes: as for B5

RBL-ER51 calcium signalling IC50 (nM), Cynomolgus IgE, geomean [1]: 0.253 nM
Kd [2]: 7.2 nM
B8: Antibody 28 IgG (antibody, V domains shown)
VH: B4 VH
VL: B4 VL
notes: as for B5

IC50 [5]: 86 nM
B11: Antibody 25 scFv (scFv, V domains shown, not shown: small tags and cut ends)
VH: B4 VH with M100T, G101L, W103S, I104A
VL: B4 VL with S96N, S97H, L98K, H99T
notes: Purified scFv

IC50 [5]: 117 nM
B12: Antibody 27 scFv (scFv, V domains shown, not shown: small tags and cut ends)
VH: B4 VH with M100S, G101L, W103E, I104A
VL: B4 VL with S96P, S97T, L98Q, H99T
notes: Purified scFv

RBL-ER51 calcium signalling IC50 (nM), Cynomolgus IgE, geomean [1]: 0.31 nM
Kd [2]: 10.5 nM
B14: Antibody 20 IgG (antibody, V domains shown)
VH: B4 VH
VL: B4 VL with S97T, L98S, H99S
notes: as for B5

IC50 [5]: 121 nM
B15: Antibody 26 scFv (scFv, V domains shown, not shown: small tags and cut ends)
VH: B4 VH with M100S, G101L, W103E, I104A
VL: B4 VL with S96A, L98R, S100A
notes: Purified scFv

The remaining lines, values behind:

B1: Antibody 4 IgG (antibody, V domains shown)
VH: B4 VH
VL: B4 VL with S96R, S97G, L98G
notes: as for B5
RBL-ER51 calcium signalling IC50 (nM), Cynomolgus IgE, geomean [1]: 0.151 nM
Kd [2]: 8 nM

B2: Antibody 18 IgG (antibody, V domains shown)
VH: B4 VH with M100L, G101L, K102R, W103S, I104A
VL: B4 VL with S96H, S97L, L98Q, H99L
RBL-ER51 calcium signalling IC50 (nM), Cynomolgus IgE, geomean [1]: 2.97 nM

B3: Antibody 1 IgG (antibody, V domains shown)
VH: B4 VH with M100L, G101H, K102R, W103R, I104L
VL: B4 VL with S97L, L98S, H99G, P101L
notes: Whole human IgG (section 1.4, IgG1); also called parent antibody
IgE induced calcium signalling of RBL-ER51 cells, IC50 [3]: 34 nM
binding result [4]: binds

B7: Antibody 12 IgG (antibody, V domains shown)
VH: B4 VH
VL: B4 VL with S97I, L98D
notes: as for B5
RBL-ER51 calcium signalling IC50 (nM), Cynomolgus IgE, geomean [1]: 0.334 nM
Kd [2]: 230 nM

B9: Antibody 8 IgG (antibody, V domains shown)
VH: B4 VH with M100L, K102R
VL: B4 VL with S96P, S97T, L98H, H99T
notes: as for B5
RBL-ER51 calcium signalling IC50 (nM), Cynomolgus IgE, geomean [1]: 0.188 nM
Kd [2]: 6.3 nM

B10: Antibody 6 IgG (antibody, V domains shown)
VH: B4 VH
VL: B4 VL with S96T, S97M, L98R, S100G
notes: as for B5
RBL-ER51 calcium signalling IC50 (nM), Cynomolgus IgE, geomean [1]: 0.168 nM
Kd [2]: 3.7 nM

B13: Antibody 13 IgG (antibody, V domains shown)
VH: B4 VH
VL: B4 VL with S96N, S97I, H99Y
notes: as for B5
RBL-ER51 calcium signalling IC50 (nM), Cynomolgus IgE, geomean [1]: 0.244 nM
Kd [2]: 9.9 nM

B16: Antibody 11 IgG (antibody, V domains shown)
VH: B4 VH
VL: B4 VL with S96P, S97T, H99T
notes: as for B5
RBL-ER51 calcium signalling IC50 (nM), Cynomolgus IgE, geomean [1]: 0.153 nM
Kd [2]: 9.3 nM
IC50 (read off the curve), IgE/FcεRI-mediated cytotoxicity [6]: ~0.1 nM

B17: Antibody 5 IgG (antibody, V domains shown)
VH: B4 VH
VL: B4 VL with S96T, S97K, L98H, H99T
notes: as for B5
RBL-ER51 calcium signalling IC50 (nM), Cynomolgus IgE, geomean [1]: 0.181 nM
Kd [2]: 7.9 nM

B18: Antibody 16 IgG (antibody, V domains shown)
VH: B4 VH with M100S, G101L, W103S, I104A
VL: B4 VL with S96R, S97H, L98H, S100A
notes: as for B5
RBL-ER51 calcium signalling IC50 (nM), Cynomolgus IgE, geomean [1]: 4.38 nM
Kd [2]: 62 nM
